From patent US20110319338A1, “PEPTIDES THAT BIND EUKARYOTIC TRANSLATION INITIATION FACTOR 4E” (The Board of Regents of the University of Texas System, priority 2008, published 2011)
Square brackets hold non-standard residues; d marks the D form. Ends that are not written are not given here.

Tests used:
[1] = target: T1, eIF4E in SKOV3+GnRH-RI cells (Homo sapiens, UniProt P06730); assay: Pull-down of peptide from lysates of peptide-treated cells, Western blot with eIF4E antibody; type: cell-based; conditions: 10 micromoles per liter, 24 hours
T1 construct: endogenous in cells; host or cells: SKOV3 cells stably transfected with human GnRH-RI (eIF4E itself is not transfected)
T1 sequence (P06730 whole entry): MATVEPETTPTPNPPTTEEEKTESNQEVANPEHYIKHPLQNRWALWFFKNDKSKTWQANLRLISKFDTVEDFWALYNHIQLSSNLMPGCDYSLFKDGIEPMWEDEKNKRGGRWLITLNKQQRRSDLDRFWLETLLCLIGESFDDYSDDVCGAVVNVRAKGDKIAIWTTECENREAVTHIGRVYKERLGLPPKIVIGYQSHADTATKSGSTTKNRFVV
Description: FIGS. 8A-8D. Effect of [DLys6] GnRH-4EBP1 peptide in SKOV3 cells stably expressing GnRH-RI. (FIG. 8A) Western blot analysis of GnRH-RI in parental SKOV3 cells and SKOV3 cells transfected with GnRH-RI. In (FIG. 8B), SKOV3+GnRH-RI cells were treated with biotinylated peptides at a final concentration of 10 micromoles per liter or incubated without peptide. At 24 hours after treatment, lysates were prepared from cells. Peptide was pulled-down using streptavidin-agarose. Precipitates and supernatants were analyzed by Western blot using eIF4E antibody. (FIG. 8C) parental SKOV3, SKOV3+GnRH-RI and ES-2 cells were treated with the indicated peptides (10 micromoles per liter) or incubated without peptide. At 24 hours after treatment, lysates were prepared from cells. Immunoprecipitation was performed using eIF4E antibody, and Western blot of precipitates was performed using eIF4G antibody. Western blot of whole cell lysates of treated cells was performed using antibodies to eIF4G, eIF4E and actin. (FIG. 8D) TUNEL-staining of parental SKOV3 and SKOV3+GnRH-RI cells at 3 days following treatment with peptide at a final concentration of 30 micromoles per liter.
Immunoprecipitation (IP) and Western blotting. Biotinylated peptides were incubated with 250 micrograms of cell lysate at a final concentration of 3 micromoles per liter for 6 hours at 4° C. […]

[2] = tested on: ES-2-DualLuc cells; assay: Cell-based translation assay with bicistronic R-Luc/F-Luc reporter; conditions: peptide 6 hours, 0.3 to 10 micromoles per liter, relative to cells without peptide
Description: FIGS. 2A-2F. Inhibition of cap-dependent translation and cell growth by TAT-4EBP fusion peptides. (FIG. 2A) Representation of the pIRES-DualLuc bicistronic construct containing Renilla Luciferase (R-Luc) and firefly luciferase (F-Luc) genes. In (FIG. 2B), R-Luc and F-Luc activities were assayed in ES-2-DualLuc cells following treatment for 24 hours with rapamycin and for 3 hours with cycloheximide with the indicated concentrations of these drugs, and expressed relative to the respective luciferase activities in cells incubated without drug. Cell viability was not affected by rapamycin and cycloheximide under these conditions. In (FIG. 2C), R-Luc and F-Luc activities were assayed in ES-2-DualLuc cells following treatment for 6 hours with the indicated concentrations of peptides, and expressed relative to the respective luciferase activities in cells incubated without peptide. Shown are results of triplicate assays performed independently two times, and the statistical significance of differences in relative R-Luc and F-Luc activities in cells treated with peptide at a concentration of 10 micromoles per liter. (FIG. 2D) Viability of OVCAR-3 cells at 3 days after addition of the indicated concentrations of peptides, expressed relative to viability of cells incubated without peptide. Shown are results of triplicate assays performed in two independent experiments, and statistical significances of differences in viability of cells treated with TAT-4EBP1-WT vs. TAT-4EBP1-MT, and of cells treated with TAT-4EBP2-WT vs. TAT-4EBP2-MT at a concentration of 10 micromoles per liter. (FIG. 2E) OVCAR-3 cells at 3 days after peptide addition (10 micromoles per liter) viewed under phase-contrast microscopy. (FIG. 2F) Flow cytometric analysis of staining of terminal deoxynucleotidyl transferase-mediated dUTP nick end labeling (TUNEL) in OVCAR-3 cells at 3 days after peptide addition (10 micromoles per liter). Cells incubated for 3 days in the absence of peptide in medium with and without serum are included as controls.
FIGS. 3A-3H. Uptake, binding and inhibitory effects of [DLys6]GnRH-4EBP fusion peptides. (FIG. 3A) Sequences of [DLys6]GnRH, and wild-type and mutant 4EBP1 peptides fused to the agonist. (FIG. 3B) Western blot of GnRH-RI levels in OVCAR-3, ES-2, MDA-MB-231, BJ, HUVEC and SKOV3 cells. (FIG. 3C) Detection of biotinylated peptides in OVCAR-3 and SKOV3 by Texas Red-conjugated streptavidin at 16 hours after peptide addition (3 micromoles per liter). In (FIGS. 3D and 3E), biotinylated peptides were incubated with OVCAR-3 cell lysate as described in FIG. 1. In (FIG. 3D), peptide was pulled down using streptavidin-agarose. Precipitates (P) and supernatants (S) were analyzed by Western blot using eIF4E antibody. In (FIG. 3E), immunoprecipitation was performed using eIF4E antibody, and Western blot performed using eIF4G antibody. (FIG. 3F) R-Luc and F-Luc activities were assayed in ES-2-DualLuc cells at 6 hours after addition of the indicated concentrations of peptides, and are expressed relative to the respective luciferase activities in cells incubated without peptide. Shown are results of triplicate assays performed independently two times, and the statistical significance of differences in relative R-Luc and F-Luc activities in cells treated with peptide at a concentration of 10 micromoles per liter (FIG. 3G) Cells of GnRH-RI-positive and -negative lines were treated with the indicated concentrations of peptides. Viability at 3 days after peptide addition is expressed relative to viability of cells incubated with no peptide. Shown are results of triplicate assays performed in two independent experiments, and statistical significances of differences in viability of cells treated with wild-type vs. mutant [DLys6]GnRH-4EBP1 peptides at a concentration of 10 micromoles per liter. (FIG. 3H) ES-2 and parental SKOV3 cells at 3 days after peptide addition (30 micromoles per liter) viewed under phase-contrast microscopy. […]

With “[DLys6]GnRH: GnRH agonist with a D-amino acid substitution at position 6; GnRH-RI-targeting moiety (QHWSY[dK]LRPG; not fully specified (residue 1, C-terminus); ends and bridges not checked)” the “binding of peptide to eIF4E in treated cells” value [1] was “neither mutant peptide nor [DLys6]GnRH alone bound eIF4E” and the “cap-dependent translation (R-Luc read-out)” value [2] was “not inhibited”.
